In publication PMC10031210 (Protein Science : A Publication of the Protein Society, 2023):

B1: FkpA (full-length, dimeric form) (natural protein, E. coli, UniProt P45523 26-270, looked up)
chain: AEAAKPATAADSKAAFKNDDQKSAYALGASLGRYMENSLKEQEKLGIKLDKDQLIAGVQDAFADKSKLSDQEIEQTLQAFEARVKSSAQAKMEKDAADNEAKGKEYREKFAKEKGVKTSSTGLVYQVVEAGKGEAPKDSDTVVVNYKGTLIDGKEFDNSYTRGEPLSFRLDGVIPGWTEGLKNIKKGGKIKLVIPPELAYGKAGVPGIPPNSTLVFDVELLDVKPAPKADAKPEADAKAADSAKK
B2: unfolded outer membrane protein X (uOmpX) (natural protein, E. coli, UniProt P0A917 24-171, looked up)
chain: ATSTVTGGYAQSDAQGQMNKMGGFNLKYRYEEDNSPLGVIGSFTYTEKSRTASSGDYNKNQYYGITAGPAYRINDWASIYGVVGVGYGKFQTTEYPTYKHDTSDYGFSYGAGLQFNPMENVALDFSYEQSRIRSVDVGTWIAGVGYRF

Key:
[1] = target: unfolded β-barrel assembly machine A (uBamA) (UniProt P0A940 21-810); test: AUC
[2] = target: B2; test: cell-based or functional assay
[3] = target: B1; test: AUC

Binder: B1
- binding result [1]: binds
- decrease of the OmpX folding rate into diC11PC LUVs with FkpA [2]: 3 fold

Binder: B2
- binding result [3]: binds
